Consider nine molecules from patent publication US20220033501A1 (SHANGHAI PHARMAEXPLORER, published 2022).

To fix the notation:
T1: human TIM-3 extracellular domain protein with hFc tag (hTIM-3-hFc) (human, UniProt Q8TDQ0 22-200)
T1 construct: not shown: human IgG Fc fragment (hFc) of the pCpC vector
T1 sequence: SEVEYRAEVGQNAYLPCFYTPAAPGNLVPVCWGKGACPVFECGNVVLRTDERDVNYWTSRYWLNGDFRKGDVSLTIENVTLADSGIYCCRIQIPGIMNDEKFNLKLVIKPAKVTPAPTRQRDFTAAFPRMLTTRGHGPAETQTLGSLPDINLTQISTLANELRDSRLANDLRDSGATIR

T2: human TIM-3, full length, on cells (human, UniProt Q8TDQ0 22-301)
T2 construct: Also used here for native TIM-3 on PBMC in the functional rows; also called CHOK1-hTIM-3; HEK293-h TIM-3
T2 sequence: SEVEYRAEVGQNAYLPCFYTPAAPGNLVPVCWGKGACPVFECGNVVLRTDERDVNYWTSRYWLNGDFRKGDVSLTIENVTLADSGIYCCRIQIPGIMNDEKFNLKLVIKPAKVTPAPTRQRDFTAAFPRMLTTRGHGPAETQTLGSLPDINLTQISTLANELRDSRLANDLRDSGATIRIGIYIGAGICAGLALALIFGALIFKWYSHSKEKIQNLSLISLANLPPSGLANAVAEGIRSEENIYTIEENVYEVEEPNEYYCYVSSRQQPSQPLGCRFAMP

B1: 7A4F10 fully human TIM-3 antibody (human IgG4, kappa) (antibody, V domains shown)
VH: EVQLLESGGGLVQPGGSLRLSCAASGFTFRTHLISWVRQAPGKGLEWVAAITGSGGSTYYADSVKGRFIISRDNSKNTLFLQMNSLRAEDTAVYYCAKDGGSGSYDDFWGQGTLVTVSS
VL: ETVLTQSPVTLSLSPGERATLSCRASQSVGSYLAWYQQKPGQAPRLLIYDASNRATGIPARFSGSGSGTDFTLTISSLEPEDFAVYYCQQRSNWPPTFGQGTKVEIK
B2: 215A8F2 fully human TIM-3 antibody (human IgG4, kappa) (antibody, V domains shown)
VH: QVQLQQWGAGLLKPSETLSLTCTVYGGSFSGYYWNWIRQPPGKGLEWLGEINHSGSTNYNPSLKRRVTISVDTSKNQFSLKLSSVTAADTAVYYCARVYYYGPFDFWGQGTLVTVSS
VL: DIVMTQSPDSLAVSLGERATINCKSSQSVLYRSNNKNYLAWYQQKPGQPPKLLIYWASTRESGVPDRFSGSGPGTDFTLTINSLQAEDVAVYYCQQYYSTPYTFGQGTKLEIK
B3: 134H3G6 fully human TIM-3 antibody (human IgG4, kappa) (antibody, V domains shown)
VH: EVQLVESGGGLVQPGGSLRLSCAASGFTFSNSWMTWVRQAPGKGLEWVANIKQAGTEKYYVDSVKGRFTISRDNAKNSLYLQMNSLRAEDTAVYYCNSGSNYFDYWGQGTLVTVSS
VL: EIVMTQSPATLSVSPGERATLSCRARQNFYSNLAWYQQKPGQAPRLLIYGASTRATGIPARFSGSGSGTEFTLTISSLQSEDFAVYYCQQYNNWPLTFGGGTKVEIK
B4: 18D2H2 fully human TIM-3 antibody (human IgG4, kappa) (antibody, V domains shown)
VH: EVQLVESGGDLVQPGGSLRLSCAASGFTFSTYWMTWVRQAPGRGLEWVANIKQDGSAKYYVDSVKGRFTLSRDDAKNSLYLQMNSLRAEDTAVYYCARGSNWFDYWGQGTLVTVSS
VL: B3 VL with I2T, R26N, F29V, G50D, I58F
B5: 7A4F10 (TIM-3 antibody purified from hybridoma, chimeric antibody of Example 2) (antibody, V domains shown)
VH: B1 VH
VL: B1 VL
notes: From hybridoma of Harbour H2L2 transgenic mice: human variable regions, rat constant regions
B6: 215A8F2 (TIM-3 antibody purified from hybridoma, chimeric antibody of Example 2) (antibody, V domains shown)
VH: B2 VH
VL: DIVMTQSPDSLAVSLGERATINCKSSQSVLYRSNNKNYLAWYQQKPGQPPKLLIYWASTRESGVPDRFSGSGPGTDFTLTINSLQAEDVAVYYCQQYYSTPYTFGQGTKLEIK
notes: as for B5
B7: 18D2H2 (TIM-3 antibody purified from hybridoma, chimeric antibody of Example 2) (antibody, V domains shown)
VH: B4 VH
VL: B3 VL with I2T, R26N, F29V, G50D, I58F
notes: as for B5
B8: 57F4E5 (TIM-3 antibody purified from hybridoma, chimeric antibody of Example 2) (antibody, V domains shown)
VH: EVQLVESGGGLVQPGGSLRLSCAASGFTFSSYWMSWVRQAPGKGLEWVANIKQDGSEKYYVDSVKGRFTISRDSAKNSLYLQMNSLRAEDTAMYFCARDSNFFDYWGQGTLVTVSS
VL: B3 VL with I2T, R26S, N28S, F29V, Y30S, Q38R, G50F, A51S
notes: as for B5
B9: 134H3G6 (TIM-3 antibody purified from hybridoma, chimeric antibody of Example 2) (antibody, V domains shown)
VH: B3 VH
VL: B3 VL
notes: as for B5

Numbering of substitutions follows the chain as printed.

One assay deals with T1, human TIM-3 extracellular domain …. The assay can be described thus: FACS, blocking of hTIM-3-hFc binding to phosphatidylserine on apoptotic Jurkat cells, 0.274 nM antibody. The protocol:
(§1) Jurkat cells were treated with 1 μM staurosporine at 37° C. for 2 hours to induce apoptosis. The presence of phosphatidylserine was detected by Annexin V-FITC cell apoptosis detection kit. […] The cells were washed 1-2 times with PBS buffer, and after cell counting, the cells were diluted to 1-2×10⁶ cells per milliliter with binding buffer, and added to a 96-well FACS reaction plate at 100 microliters per well. The antibody sample to be tested and 2 μg/ml hTIM-3-hFc protein were prepared with binding buffer, and mixed equally in volume. The mixture was incubated at room temperature for 30 minutes, then the FACS reaction plate incubated with apoptotic cells was centrifuged to discard the supernatant, and the above mixture was added to the apoptotic cells at 100 microliters per well and incubated at room temperature for 1 hour. The plate was washed twice with the binding buffer by centrifugation, added with 100 microliters of fluorescent (Alexa 488)-labeled secondary antibodies per well, and incubated for half an hour. The plate was washed 2-3 times with the binding buffer by centrifugation, added with 100 microliters of PBS per well to suspend cells, and detected using FACS (FACS Calibur, BD) and the results were analyzed. The results are shown in Table 15 and FIG. 15, wherein the IgG control is human IgG, and the data in the table is the inhibition rate (%).
On to B1, for which the “Inhibition ratio (%)” value was 0.9%.
Regarding B2, the “Inhibition ratio (%)” value came to 0.3%.
On to B3, for which the “Inhibition ratio (%)” value was 8%.
Turning to B4, the “Inhibition ratio (%)” value was found to be 5.4%.

The target in the next assay is T2, human TIM-3, full length, on cells. The assay can be described thus: FACS, CHOK1-hTIM-3 cells; antibody 1.6 nM. An excerpt: (§2) The pIRES plasmid containing the full-length nucleotide sequence encoding human TIM-3 as described in Example 1 was transfected into CHOK1 cell line to obtain a CHOK1 stable cell line containing human TIM-3 (herein referred to as CHOK1-hTIM-3 stable cell line). The pIRES plasmid containing the full-length gene of monkey TIM-3 was transfected into CHOK1 cell line to construct a CHOK1 stable cell line containing monkey TIM-3 (herein referred to as CHOK1-cTIM-3 stable cell line). The CHOK1-hTIM-3 stable cell line and CHOK1-cTIM-3 stable cell line were expanded to a confluence of 90% in a T-75 cell culture flask. The medium was aspirated, and the cells were washed with HBSS (Hanks' Balanced Salt Solution) 1-2 times, and then treated with an enzyme-free cell dissociation solution (Versene solution: Life technology) and the cells were collected. The cells were washed with HBSS buffer for 1-2 times. After counted, the cells were diluted with HBSS to 1-2×10⁶ cells per ml, added with 1% goat serum blocking solution, incubated on ice for 20-30 minutes, and then washed with HBSS by centrifugation 2 times. The collected cells were suspended in the FACS buffer (HBSS+1% BSA) to 2×10⁶ cells/ml, added as 100 microliters per well to a 96-well FACS reaction plate, added with 100 microliters per well of the antibody sample to be tested, incubated on ice for 1-2 hours. The plate was washed twice with the FACS buffer by centrifugation, added with 100 microliters of fluorescent (Alexa 488)-labeled secondary antibodies per well, and incubated on ice for 0.5-1.0 hours. The plate was washed 2-3 times with FACS buffer by centrifugation, added with 100 μl fixative solution (4% Paraformaldehyde) per well to suspend the cells. 5-10 minutes later, it was washed 1-2 times with FACS buffer by centrifugation. The cells were suspended with 100 microliters of FACS buffer, FACS (FACSCalibur, BD) was used for detection and the results were analyzed. The results are shown in FIGS. 7 and 8, Tables 7 and 8, wherein the IgG control is rat IgG, and the data in the table are the average fluorescence intensity values of the cell populations measured by MFI.
Take B5: the Mean fluorescence intensity is 15.4.
Regarding B6, the Mean fluorescence intensity was 214.
Same read-out and setting: the same measure for B7: 40.2; for B8: 390; for B9: 50.

The target in the next assay is T1, human TIM-3 extracellular domain …. Kind of assay: FACS, blocking of hTIM-3-hFc binding to phosphatidylserine on apoptotic Jurkat cells, 200 nM antibody. The procedure:
as §1
Consider B1, for which the “Inhibition ratio (%)” value stood at 56.9%.
With B2, the “Inhibition ratio (%)” value worked out at 52.1%.
Take B3: the “Inhibition ratio (%)” value was 37.6%.
Consider B4, for which the “Inhibition ratio (%)” value was determined as 56.1%.

The target is the same in another assay. Kind of assay: FACS, blocking of hTIM-3-hFc binding to phosphatidylserine on apoptotic Jurkat cells, 2.469 nM antibody. The protocol: as §1
As to B1, the “Inhibition ratio (%)” value is 23.7%.
Consider B2, for which the “Inhibition ratio (%)” value stood at 5.8%.
Regarding B3, the “Inhibition ratio (%)” value was determined as 10.9%.
As to B4, the “Inhibition ratio (%)” value amounted to 27.4%.

The target in another assay is T2, human TIM-3, full length, on cells. Kind of assay: FACS, CHOK1-hTIM-3 cells; antibody 0.013 nM.
From the text: as §2
The molecule B5 had a Mean fluorescence intensity of 3.3.
As for B6, the Mean fluorescence intensity stood at 8.6.
With B7, the Mean fluorescence intensity amounted to 4.2.
Same read-out and setting: the same measure for B8: 21.2.
B9 registered a Mean fluorescence intensity of 4.7.

A further assay shares this target. The assay can be described thus: FACS, CHOK1-hTIM-3 cells; antibody 200 nM.
From the text: as §2
For the molecule B5, the Mean fluorescence intensity was 145.
In the case of B6, the Mean fluorescence intensity worked out at 613.
Consider B7, for which the Mean fluorescence intensity came out at 212.
Regarding B8, the Mean fluorescence intensity stood at 485.
In turn, B9 came in with a Mean fluorescence intensity of 261.

The next assay concerns the target T1, human TIM-3 extracellular domain …. Kind of assay: FACS, blocking of hTIM-3-hFc binding to phosphatidylserine on apoptotic Jurkat cells, 22.222 nM antibody. The procedure: as §1
On to B1, for which the “Inhibition ratio (%)” value stood at 62.1%.
Take B2: the “Inhibition ratio (%)” value stood at 61.8%.
B3: the “Inhibition ratio (%)” value worked out at 58.4%.
Regarding B4, the “Inhibition ratio (%)” value was determined as 63.9%.

A further assay concerns the target T2, human TIM-3, full length, on cells. The assay can be described thus: FACS, CHOK1-hTIM-3 cells; antibody 0.32 nM.
From the text: as §2
With B5, the Mean fluorescence intensity was determined as 6.8.
On to B6, for which the Mean fluorescence intensity was found to be 55.6.
In the case of B7, the Mean fluorescence intensity stood at 15.6.
Consider B8, for which the Mean fluorescence intensity came to 177.
Same read-out and setting: the same measure for B9: 17.7.

For the next assay, the target named is T1, human TIM-3 extracellular domain …. Kind of assay: FACS, blocking of hTIM-3-hFc binding to phosphatidylserine on apoptotic Jurkat cells, 66.667 nM antibody. The protocol:
as §1
Take B1: the “Inhibition ratio (%)” value came to 60.5%.
With B2, the “Inhibition ratio (%)” value amounted to 57.2%.
Consider B3, for which the “Inhibition ratio (%)” value came out at 52.3%.
For the molecule B4, the “Inhibition ratio (%)” value was 62.3%.

For the next assay the target is unchanged. Kind of assay: FACS, blocking of hTIM-3-hFc binding to phosphatidylserine on apoptotic Jurkat cells, 0 nM antibody. The protocol: as §1
As for B1, the “Inhibition ratio (%)” value was 0.5%.
Regarding B2, the “Inhibition ratio (%)” value is 1.6%.
For the molecule B3, the “Inhibition ratio (%)” value was 5.5%.
On the same count and under the same terms, the same measure for B4: 1.4%.
